The target in one experiment is TrioGEFD2 (Homo sapiens, UniProt O75962). The experiment is described as follows: Co-immunoprecipitation of HA-TrioGEFD2 with GFP-TRIPα in COS cells. Type of experiment: binding. Also on record: using recombinant GST-TrioGEFD2 (a.a. 1848-2298), TrioDH2 (a.a. 1848-2096); made in house. Conditions: anti-GFP IP, anti-HA western blot. An excerpt:
HA-TrioGEFD2 was co-expressed with either GFP-TRIPα (right column) or GFP alone (left column). The upper panel represents the immunoprecipitation (IP) with the anti-GFP antibody (α-GEP), followed by a western-blot (WB) using the anti-HA antibody (α-HA) and the two lower panels represent the expression of the proteins in the cell lysates.
The Inventors next wanted to determine the effect of TRIPα on GEFD2-mediated RhoA activation in intact cells. First, it was checked whether TRIPα could bind to TrioGEFD2 in mammalian cells. For that purpose, vectors expressing the variable region of TRIAPα (TRIPα) fused to GFP in the pEGFP-C3 plasmid (Clontech) were designed. GFP or GFP-TRIPα were co-expressed with pMTHA-TroGEFD2 by transfection of COS cells using Lipofectamine Plus (Life Technologies) according to the manufacturer's protocol. Immunoprecipitation of GFP-tagged constructs from COS cell lysates were done with the polyclonal rabbit anti-GFP antibody (Torrey Pines Biolabs, Inc.).

A further experiment deals with Lbc. The experiment is described as follows: In vitro GEF assay on RhoA. The class given is biochemical. To be noted: for Effect on Lbc exchange activity on RhoA: 20-fold molar excess, Lbc 0.4 μM. Also on record: key to in vitro GEF assay (inhibition): +++^2 and +^2 represent respectively a full and a partial (see FIG. 3) inhibitory effect; +++^2 and +^2 represent respectively a full and a partial (see FIG. 3) inhibitory effect; −−^2 represents a lack of inhibitory effect. As for the experimental part:
(§1) To test the specificity of TRIAPα inhibition in vitro, exchange experiments were performed either on RhoA with different RhoA-specific GEFs: Trio GEFD2 (0.4 μM), Kalirin GEFD2 (KalGEFD2, 1.7 μM), p63RhoGEF (Souchet et al., 2002) (0.4 μM) and Lbc (amino acids 172-598; Zheng et al., 1995) (0.4 μM), or on RhoG, with the RhoG-specific GEF domain of Trio (TrioGEFD1, 0.1 μM). Exchange assays were performed with the recombinant GEFs as described in FIG. 2A. Different concentrations of RhoGEFs were used to yield a similar nucleotide exchange efficiency. For each exchange factor, three independent experiments were done in absence (black bar) or in the presence (grey bar) of a 20-fold molar excess of TRIAPα.
(§2) An in vitro guanine nucleotide exchange (GEF) assay was used to test whether the TrioGEFD2-binding aptamers could inhibit the catalytic activity of TrioGEFD2 towards RhoA. For this purpose, the aptamers TRIAPα, TRIAPβ and TRIAPγ (including the Trx gene) were excised from pEG202 as EcoRI/NotI fragments and cloned into pGEX4T1 EcoRI/NotI. The aptamers were then expressed and purified from bacteria as GST fusion proteins, using standard procedures (Smith and Johnson, 1988). GTPase-GST fusion proteins were prepared, loaded with [^3H]GDP and the guanine nucleotide release assays were performed as described (Debant et al., 1996), using recombinant GST-TrioGEFD2 (a.a. 1848-2298), TrioDH2 (a.a. 1848-2096). For each point, 0.3 μM GTPase was mixed with or without 0.4 μM GEF in presence of non-labeled GTP, and the reaction mix was filtered after 0 min and 15 mm reaction at 25° C. The catalytic activity of TrioGEFD2 was thus measured by the decrease of the GTPase-associated radioactivity. The results are expressed as the ratio “exchange after 15 min over exchange after 0 min” (% bound [^3H]GDP-RhoA). To measure the effect of the aptamers on the exchange activity, a 20-fold molar excess of GST-TRIAPs was pre-incubated with GEFD2 (or GEFD1) for 30 min on ice before the exchange assay was carried out. For each experiment, data were obtained in triplicate.
(§3) The effect of GST-TRIAPα on other Rho-GEFs that display in vitro exchange activity on RhoA was next tested to investigate whether TRIAPα inhibition was specific of TrioGEFD2. The exchange activities of the RhoGEF Lbc (a.a. 1-424, FIG. 3)(Zheng et al., 1995) and Dbl (a.a. 495-826, data not shown) were not affected by GST-TRIAPα. The effect of GST-TRIAPα on the catalytic activity of RhoGEFs that display a high sequence similarity with TrioGEFD2 was then tested: the recently identified RhoA-specific p63RhoGEF (Souchet et al., 2002) (a.a. 149-374, 71.5% identity with TrioGEFD2, 0.4 μM) and the second Rho-GEF domain of the Trio family member Kalirin (KalGEFD2, a.a. 1850-2190, 65% identity with TrioGEFD2, 1.7 μM). Different concentrations of RhoGEFs were used to yield similar nucleotide exchange […]. For each exchange factor, three independent experiments were done in absence or in the presence of a 20-fold molar excess of GST-TRIAPα. […] Thus, the in vitro inhibitory activity of TRIAPα was selective for TrioGEFD2 (see table I for summary of the tested RhoGEFs).

Another experiment concerns the target T1, p63RhoGEF (Homo sapiens, UniProt Q86VW2).
T1 construct: (a.a. 149-374, 71.5% identity with TrioGEFD2, 0.4 μM); made in house
Kind of experiment: In vitro GEF assay on RhoA. Type of experiment: biochemical. Also on record: key to in vitro GEF assay (inhibition): +++^2 and +^2 represent respectively a full and a partial (see FIG. 3) inhibitory effect; +++^2 and +^2 represent respectively a full and a partial (see FIG. 3) inhibitory effect; −−^2 represents a lack of inhibitory effect. To be noted: for Effect on p63RhoGEF exchange activity on RhoA: 20-fold molar excess, p63RhoGEF 0.4 μM. As for the experimental part:
as §1, §2, §3

For another experiment, the target named is T2, TrioDH2 (Homo sapiens, UniProt O75962).
T2 construct: TrioDH2 (a.a. 1848-2096); made in house
Kind of experiment: In vitro GEF assay on RhoA. The class given is biochemical. To be noted: 20-fold molar excess (8 μM) aptamer, 0.4 μM GST-DH2. As for the experimental part: A 20-fold molar excess (8 μM) of GST-aptamers TRIAPα, TRIAPβ (another TrioGEFD2 binding aptamer), TRIAPγ (another TrioGEFD2 binding aptamer) or the empty thioredoxine (Trx) were pre-incubated with 0.4 μM GST-GEFD2 (left side of FIG. 2A) or 0.4 μM GST-DH2 (right side of FIG. 2A), as indicated, before adding 0.3 μM of [^3H]GDP loaded GST-RhoA. The exchange activity was monitored by the decrease of [^3H]GDP bound-RhoA after 15 min (see Materials and Methods). The amount of [^3H]GDP bound-RhoA incubated without GEF (first bar on the left) was defined as 100% The values and errors bars were calculated from at least three independent experiments.
An in vitro guanine nucleotide exchange (GEF) assay was used to test whether the TrioGEFD2-binding aptamers could inhibit the catalytic activity of TrioGEFD2 towards RhoA. For this purpose, the aptamers TRIAPα, TRIAPβ and TRIAPγ (including the Trx gene) were excised from pEG202 as EcoRI/NotI fragments and cloned into pGEX4T1 EcoRI/NotI. The aptamers were then expressed and purified from bacteria as GST fusion proteins, using standard procedures (Smith and Johnson, 1988). […] The catalytic activity of TrioGEFD2 was thus measured by the decrease of the GTPase-associated radioactivity. The results are expressed as the ratio “exchange after 15 min over exchange after 0 min” (% bound [^3H]GDP-RhoA). […]

The text below walks through data of patent US8088892B2, “Inhibitors of proteins from the Rho-GEF family” (Centre National de la Recherche Scientifique (C.N.R.S.), priority 2002, dated 2012).

T1 sequence (Q86VW2 149-374): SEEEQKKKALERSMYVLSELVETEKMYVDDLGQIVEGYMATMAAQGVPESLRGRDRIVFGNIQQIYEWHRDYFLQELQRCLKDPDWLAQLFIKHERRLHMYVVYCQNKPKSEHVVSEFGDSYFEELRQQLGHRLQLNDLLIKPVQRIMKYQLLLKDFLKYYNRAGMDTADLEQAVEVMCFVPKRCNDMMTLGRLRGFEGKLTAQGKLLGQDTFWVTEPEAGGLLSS
Sequence of Lbc (Q12802 1994-2333 limits assumed): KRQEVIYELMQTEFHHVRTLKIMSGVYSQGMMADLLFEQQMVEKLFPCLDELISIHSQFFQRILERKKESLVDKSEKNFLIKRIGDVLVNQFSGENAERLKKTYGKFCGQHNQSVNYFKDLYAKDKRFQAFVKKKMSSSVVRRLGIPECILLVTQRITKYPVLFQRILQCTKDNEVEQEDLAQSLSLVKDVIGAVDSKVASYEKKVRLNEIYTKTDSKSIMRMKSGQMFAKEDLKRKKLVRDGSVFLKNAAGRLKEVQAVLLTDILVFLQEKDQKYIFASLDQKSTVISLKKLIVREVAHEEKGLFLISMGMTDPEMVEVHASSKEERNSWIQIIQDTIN

“AREGADGAICGYNLATLVMLGPSERVFCPLCEPCSSDIYELM [TRIPα, 42-amino acid peptide corresponding to the variable region of TRIAPα]”: in the experiment with TrioGEFD2, the “Interaction with TrioGEFD2 in mammalian cells” value is “interacts with TrioGEFD2 in mammalian cells”.

B1: TRIAPα: aptamer of 154 amino acids: variable region of 42 amino acids inserted into the thioredoxin protein; tested as GST fusion (protein)
chain: MSDKIIHLTDDSFDTDVLKADGAILVDFWAEWCGPAREGADGAICGYNLATLVMLGPSERVFCPLCEPCSSDIYELMGPCKMIAPILDEIADEYQGKLTVAKLNIDQNPGTAPKYGIRGIPTLLLFKNGEVASATKVGALSKGQLKEFLDANLA
Consider B1, for which the results for the “Effect on Lbc exchange activity on RhoA” value with Lbc and in the experiment on Lbc (listed as GST-TRIAPα) were “has no effect” and “not affected”, respectively. For the same molecule, the “in vitro GEF assay (inhibition)” value in the experiment with Lbc (RhoGEF Lbc) and with p63RhoGEF (RhoGEF p63RhoGEF) was “−−^2” each time. For the same molecule, the “Effect on p63RhoGEF exchange activity on RhoA” value with p63RhoGEF is recorded as “has no effect”; with p63RhoGEF (listed as GST-TRIAPα) it was “had no effect”. For the same molecule, the “Inhibition of TrioDH2 exchange activity on RhoA in vitro” value with TrioDH2 was “inhibits”; with TrioDH2 (listed as GST-TRIAPα), “inhibited both TrioGEFD2 and TrioDH2 exchange activities”.
